Experimental data from US20210317231A1 (BYONDIS B V, published 2021).

T1: human 5T4 oncofoetal antigen (human, UniProt Q13641 32-420)
T1 construct: whole, on cells; also called hu 5T4; human 5T4 antigen
T1 sequence (looked up): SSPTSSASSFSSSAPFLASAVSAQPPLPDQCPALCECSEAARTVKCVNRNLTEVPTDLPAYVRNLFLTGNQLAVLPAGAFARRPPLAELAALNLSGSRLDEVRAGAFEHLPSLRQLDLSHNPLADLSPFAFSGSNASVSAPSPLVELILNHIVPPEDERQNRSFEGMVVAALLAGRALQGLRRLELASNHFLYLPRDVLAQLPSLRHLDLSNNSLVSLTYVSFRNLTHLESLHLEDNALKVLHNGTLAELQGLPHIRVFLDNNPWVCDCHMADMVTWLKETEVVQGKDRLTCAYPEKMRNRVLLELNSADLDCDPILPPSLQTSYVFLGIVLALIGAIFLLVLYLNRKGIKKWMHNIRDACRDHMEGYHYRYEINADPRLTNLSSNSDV

T2: cynomolgus monkey 5T4 antigen (cynomolgus monkey, UniProt Q4R8Y9 35-420)
T2 construct: whole, on cells; also called cyno 5T4
T2 sequence (looked up): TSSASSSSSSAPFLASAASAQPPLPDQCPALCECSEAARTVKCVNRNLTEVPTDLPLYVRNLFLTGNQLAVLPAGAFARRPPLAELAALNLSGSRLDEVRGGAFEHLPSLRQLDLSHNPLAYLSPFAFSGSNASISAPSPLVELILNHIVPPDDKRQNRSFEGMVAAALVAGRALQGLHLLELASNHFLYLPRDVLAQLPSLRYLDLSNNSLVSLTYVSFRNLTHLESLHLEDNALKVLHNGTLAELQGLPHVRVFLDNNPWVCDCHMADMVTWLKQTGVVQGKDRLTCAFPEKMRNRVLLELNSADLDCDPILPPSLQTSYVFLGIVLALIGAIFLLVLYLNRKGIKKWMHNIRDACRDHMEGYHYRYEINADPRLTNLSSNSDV


Key:
[1] = molecular target: T1, human 5T4 oncofoetal antigen; assay: flow cytometry, CHOZN cells expressing hu 5T4
[2] = molecular target: T2, cynomolgus monkey 5T4 antigen; assay: flow cytometry, CHOZN cells expressing cyno 5T4

Binder	EC50 [1] [µg/mL]	EC50 [2] [µg/mL]
humanized anti-5T4 antibody 825b with HC-41C mutation (antibody, human IgG1, kappa, V domains shown) VH: EVQLEESGGGLVKPGGSLRLSCAASGIDLSSYGMGWVRQACGKGLEWVSIISRNSVTYYATWAKGRFTISRDNSKNTLYLQMNSLRAEDTAVYYCARRATYSGALGYFDIWGRGTLVTVSS VL: EIVMTQSPSSLSASVGDRVTITCQASENIYSTLAWYQQKPGKAPKLLIYDAFDLASGVPSRFSGSGSGTDYTLTISSLQPEDFATYYCQQGYSGTNVDNAFGQGTKLEIKR	0.16	0.46
humanized anti-5T4 antibody 825a with HC-41C mutation (antibody, human IgG1, kappa, V domains shown) VH: EVQLVESGGDLAQPGGSLRLSCAVSGIDLSSYGMGWVRQACGKGLEWVSIISRNSVTYYATWAKGRFTISRDNSKNTVYLQMTSLRAEDTALYFCARRATYSGALGYFDIWGQGTLVTVSS VL: EIVMTQSPSSLSASVGDRVTITCQASENIYSTLAWYQQKPGKAPKLLIYDAFDLASGVPSRFSGSGSGTDYTLTISSLQPEDFATYYCQQGYSGTNVDNAFGQGTKLEIKR	0.15	0.53

Results, then the binder that gave them:

EC50 [1] [µg/mL]	EC50 [2] [µg/mL]	Binder
0.18	0.16	humanized anti-5T4 antibody 833d with HC-41C mutation (antibody, human IgG1, kappa, V domains shown) VH: QSLEESGGGLVQPGGSLRLSCAASGIDLSHYVVGWVRQACGKGLEWIGIIYGSGRTYYANWAKGRFTISRHNSKNTLYLQMNSLRAEDTAVYYCARDASVSVYYWGYFDLWGQGTLVTVSS VL: DIQMTQSPSSLSASVGDRVTITCQASQSIGSELAWYQQKPGQAPKLLIYRASTLESGVPSRFSGSGSGTEFTFTISSLQPEDLATYYCQQGYTYSEIDNAFGQGTKLEIKR
0.21	0.42	humanized anti-5T4 antibody 825c with HC-41C mutation (antibody, human IgG1, kappa, V domains shown) VH: EVQLEESGGGLVKPGGSLRLSCAASGIDLSSYGMGWVRQACGKGLEWVSIISRNSVTYYATWAKGRFTISRDNSKNTLYLQMNSLRAEDTAVYYCARRATYSGALGYFDIWGRGTLVTVSS VL: GYDMTQSPSSVSASVGDRVTITCQASENIYSTLAWYQQKPGKAPKLLIYDAFDLASGVPSRFKGSGSGTEYTLTISSLQPEDFATYYCQQGYSGTNVDNAFGGGTKVEIKR
